Laboratory results from patent US20230140293A1.

Experiments:
Experiment in all cases: cell-based or functional assay
[1] = molecular target: HIV-1 426c.DM (N460D/N463D) Env on Env-pseudotyped virus produced in 293T cells (HIV-1)
[2] = molecular target: CH0505TF Env, Env-pseudotyped virus produced in 293S GnTI- cells (Man5-enriched) (HIV-1)
[3] = molecular target: CH0505TF.gly3.276 Env, Env-pseudotyped virus produced in 293T cells (HIV-1)
[4] = molecular target: CH0505TF.G458Y Env, Env-pseudotyped virus produced in 293S GnTI- cells (Man5-enriched) (HIV-1)
[5] = molecular target: HIV-1 Env 426c.TM (N276D.N460D.N463D), Env-pseudotyped virus produced in 293T cells (HIV-1 clade C strain 426c)
[6] = molecular target: HIV-1 426c.SM (N276D) Env on Env-pseudotyped virus produced in 293T cells (HIV-1)
[7] = molecular target: HIV-1 426c.TM (N276D/N460D/N463D) Env on Env-pseudotyped virus produced in 293T cells (HIV-1)
[8] = molecular target: CH0505TF Env, Env-pseudotyped virus produced in 293T cells (HIV-1)
[9] = molecular target: CH0505TF.gly3.197 Env, Env-pseudotyped virus produced in 293S GnTI- cells (Man5-enriched) (HIV-1)
[10] = molecular target: CH0505TF.gly3.461 Env, Env-pseudotyped virus produced in 293T cells (HIV-1)
[11] = molecular target: HIV-1 Env 426c.TM (N276D.N460D.N463D), Env-pseudotyped virus produced in 293S GnTI- cells (Man5-enriched) (HIV-1 clade C strain 426c)
[12] = molecular target: HIV-1 Env 426c, Env-pseudotyped virus produced in 293T cells (HIV-1 clade C strain 426c)
[13] = molecular target: CH0505TF.gly4 Env, Env-pseudotyped virus produced in 293S GnTI- cells (Man5-enriched) (HIV-1)
[14] = molecular target: HIV-1 426c.DM (N460D/N463D) Env on Env-pseudotyped virus produced in 293s/GnTI-/- cells (Man5-enrichment) (HIV-1)
[15] = molecular target: CH0505TF.gly3.461 Env, Env-pseudotyped virus produced in 293S GnTI- cells (Man5-enriched) (HIV-1)
[16] = molecular target: CH0505.w4.3 Env, Env-pseudotyped virus produced in 293T cells (HIV-1)
[17] = molecular target: HIV-1 Env 426c.DM (N460D.N463D), Env-pseudotyped virus produced in 293T cells (HIV-1 clade C strain 426c)
[18] = molecular target: CH0505TF.gly3.197 Env, Env-pseudotyped virus produced in 293T cells (HIV-1)
[19] = molecular target: CH0505TF.gly4 Env, Env-pseudotyped virus produced in 293T cells (HIV-1)
[20] = molecular target: HIV-1 426c.TM (N276D/N460D/N463D) Env on Env-pseudotyped virus produced in 293s/GnTI-/- cells (Man5-enrichment) (HIV-1)
[21] = molecular target: HIV-1 426c.SM (N276D) Env on Env-pseudotyped virus produced in 293s/GnTI-/- cells (Man5-enrichment) (HIV-1)
[22] = molecular target: HIV-1 Env 426c.SM (N276D), Env-pseudotyped virus produced in 293S GnTI- cells (Man5-enriched) (HIV-1 clade C strain 426c)
[23] = molecular target: HIV-1 Env 426c.TM4 (S278R.G471S.N460D.N463D), Env-pseudotyped virus produced in 293S GnTI- cells (Man5-enriched) (HIV-1 clade C strain 426c)
[24] = molecular target: HIV-1 Env 426c.SM (N276D), Env-pseudotyped virus produced in 293T cells (HIV-1 clade C strain 426c)
[25] = molecular target: HIV-1 Env 426c, Env-pseudotyped virus produced in 293S GnTI- cells (Man5-enriched) (HIV-1 clade C strain 426c)
[26] = molecular target: HIV-1 Env 426c.DM (N460D.N463D), Env-pseudotyped virus produced in 293S GnTI- cells (Man5-enriched) (HIV-1 clade C strain 426c)
[27] = molecular target: HIV-1 clade C strain 426c Env on Env-pseudotyped virus produced in 293s/GnTI-/- cells (Man5-enrichment) (HIV-1)
[28] = molecular target: HIV-1 Env 426c.TM4 (S278R.G471S.N460D.N463D), Env-pseudotyped virus produced in 293T cells (HIV-1 clade C strain 426c)
[29] = molecular target: HIV-1 clade C strain 426c Env on Env-pseudotyped virus produced in 293T cells (HIV-1)
[30] = molecular target: CH0505TF.G458Y Env, Env-pseudotyped virus produced in 293T cells (HIV-1)
[31] = molecular target: CH0505TF.gly3.276 Env, Env-pseudotyped virus produced in 293S GnTI- cells (Man5-enriched) (HIV-1)

Row | Substance | IC50 (µg/ml) in TZM-bl [2] [µg/mL] | IC50 (µg/ml) in TZM-bl [3] [µg/mL] | IC50 (µg/ml) in TZM-bl [4] [µg/mL] | IC50 (µg/ml) in TZM-bl [5] [µg/mL] | IC50 (µg/ml) in TZM-bl [8] [µg/mL] | IC50 (µg/ml) in TZM-bl [9] [µg/mL] | IC50 (µg/ml) in TZM-bl [10] [µg/mL] | IC50 (µg/ml) in TZM-bl [11] [µg/mL] | IC50 (µg/ml) in TZM-bl [12] [µg/mL] | IC50 (µg/ml) in TZM-bl [13] [µg/mL] | IC50 (µg/ml) in TZM-bl [15] [µg/mL] | IC50 (µg/ml) in TZM-bl [17] [µg/mL] | IC50 (µg/ml) in TZM-bl [18] [µg/mL] | IC50 (µg/ml) in TZM-bl [19] [µg/mL] | IC50 (µg/ml) in TZM-bl [22] [µg/mL] | IC50 (µg/ml) in TZM-bl [23] [µg/mL] | IC50 (µg/ml) in TZM-bl [24] [µg/mL] | IC50 (µg/ml) in TZM-bl [25] [µg/mL] | IC50 (µg/ml) in TZM-bl [26] [µg/mL] | IC50 (µg/ml) in TZM-bl [28] [µg/mL] | further results
1 | 2F5 (antibody) | > 25 | > 25 | > 25 | > 25 | > 25 | > 25 | > 25 | > 25 | > 25 | > 25 | > 25 | > 25 | > 25 | > 25 | > 25 | > 25 | > 25 | > 25 | > 25 | > 25 | ID50/IC50 in TZM-bl [1]: > 25 µg/mL; ID50/IC50 in TZM-bl [6]: > 25 µg/mL; ID50/IC50 in TZM-bl [7]: > 25 µg/mL; ID50/IC50 in TZM-bl [14]: > 25 µg/mL; IC50 (µg/ml) in TZM-bl [16]: > 25 µg/mL; ID50/IC50 in TZM-bl [20]: > 25 µg/mL; ID50/IC50 in TZM-bl [21]: > 25 µg/mL; ID50/IC50 in TZM-bl [27]: > 25 µg/mL; ID50/IC50 in TZM-bl [29]: > 25 µg/mL; IC50 (µg/ml) in TZM-bl [30]: > 25 µg/mL; IC50 (µg/ml) in TZM-bl [31]: > 25 µg/mL
2 | 2G12 (antibody) | > 25 | > 25 | > 25 | > 25 | > 25 | > 25 | > 25 | > 25 | > 25 | > 25 | > 25 | > 25 | > 25 | > 25 | > 25 | > 25 | > 25 | > 25 | > 25 | > 25 | ID50/IC50 in TZM-bl [1]: > 25 µg/mL; ID50/IC50 in TZM-bl [6]: > 25 µg/mL; ID50/IC50 in TZM-bl [7]: > 25 µg/mL; ID50/IC50 in TZM-bl [14]: > 25 µg/mL; IC50 (µg/ml) in TZM-bl [16]: > 50 µg/mL; ID50/IC50 in TZM-bl [20]: > 25 µg/mL; ID50/IC50 in TZM-bl [21]: > 25 µg/mL; ID50/IC50 in TZM-bl [27]: > 25 µg/mL; ID50/IC50 in TZM-bl [29]: > 25 µg/mL; IC50 (µg/ml) in TZM-bl [30]: > 25 µg/mL; IC50 (µg/ml) in TZM-bl [31]: > 25 µg/mL
3 | 10E8 (antibody) | 2.2 | 3.3 | 2.1 | 1.52 | 4.4 | 4 | 3.3 | 0.51 | 0.8 | 2.2 | 2.5 | 1.11 | 3.4 | 2.7 | 0.28 | 0.19 | 1.26 | 0.35 | 0.45 | 0.53 | IC50 (µg/ml) in TZM-bl [16]: 1.1 µg/mL; IC50 (µg/ml) in TZM-bl [30]: 1.1 µg/mL; IC50 (µg/ml) in TZM-bl [31]: 2.3 µg/mL
4 | PGDM1400 (antibody) | 0.007 | 0.02 | 0.002 | > 25 | 0.006 | 0.003 | 0.04 | > 5 | > 25 | 0.007 | 0.008 | > 25 | 0.01 | 0.016 | > 5 | > 5 | > 25 | > 5 | > 5 | > 5 | ID50/IC50 in TZM-bl [1]: > 25 µg/mL; ID50/IC50 in TZM-bl [6]: > 25 µg/mL; ID50/IC50 in TZM-bl [7]: > 25 µg/mL; ID50/IC50 in TZM-bl [14]: > 5 µg/mL; ID50/IC50 in TZM-bl [20]: > 5 µg/mL; ID50/IC50 in TZM-bl [21]: > 5 µg/mL; ID50/IC50 in TZM-bl [27]: > 5 µg/mL; ID50/IC50 in TZM-bl [29]: > 25 µg/mL; IC50 (µg/ml) in TZM-bl [30]: 0.006 µg/mL; IC50 (µg/ml) in TZM-bl [31]: 0.004 µg/mL
5 | VRC03 (antibody) | – | – | – | – | – | – | – | 0.003 | – | – | – | – | – | – | 0.003 | < 0.002 | – | 0.014 | 0.005 | 0.003 | –
6 | VRC04 (antibody) | – | – | – | – | – | – | – | 0.01 | – | – | – | – | – | – | 0.02 | < 0.002 | – | 0.18 | 0.05 | 0.013 | –
7 | VRC07 (antibody) | – | – | – | – | – | – | – | 0.009 | – | – | – | – | – | – | 0.02 | < 0.002 | – | 0.07 | 0.05 | < 0.002 | –
8 | VRC018 (antibody) | – | – | – | – | – | – | – | 0.006 | – | – | – | – | – | – | 0.01 | < 0.002 | – | 0.06 | 0.02 | 0.005 | –
9 | VRC20 (VRC-PG20) (antibody) | – | – | – | – | – | – | – | 0.005 | – | – | – | – | – | – | 0.004 | 0.008 | – | 0.015 | 0.007 | < 0.002 | –
10 | VRC23 (antibody) | – | – | – | – | – | – | – | 3.1 | – | – | – | – | – | – | 0.1 | < 0.002 | – | 0.19 | 0.06 | 0.082 | –
11 | VRC34.01 (antibody) | 0.1 | 0.62 | 0.03 | 0.08 | 0.55 | 0.17 | 0.84 | 0.07 | 0.08 | 0.14 | 0.17 | 0.09 | 2.1 | 0.94 | 0.07 | 0.07 | 0.06 | 0.05 | 0.04 | 0.13 | IC50 (µg/ml) in TZM-bl [16]: > 25 µg/mL; IC50 (µg/ml) in TZM-bl [30]: 0.21 µg/mL; IC50 (µg/ml) in TZM-bl [31]: 0.14 µg/mL
12 | VRC34.1 (antibody) | – | – | – | – | – | – | – | – | – | – | – | – | – | – | – | – | – | – | – | – | ID50/IC50 in TZM-bl [1]: 0.09 µg/mL; ID50/IC50 in TZM-bl [6]: 0.06 µg/mL; ID50/IC50 in TZM-bl [7]: 0.08 µg/mL; ID50/IC50 in TZM-bl [14]: 0.04 µg/mL; ID50/IC50 in TZM-bl [20]: 0.07 µg/mL; ID50/IC50 in TZM-bl [21]: 0.07 µg/mL; ID50/IC50 in TZM-bl [27]: 0.05 µg/mL; ID50/IC50 in TZM-bl [29]: 0.08 µg/mL
